This is an account of results in US20190000928A1.

Common to all, as to test: cell-based or functional assay
The target in experiment [1] is human glucagon-like peptide 2 receptor (GLP-2R) (human) (UniProt O95838).
Experiment [2] concerns the target human glucagon receptor (GCGR) (human) (UniProt P47871).
The target of experiment [3] is human glucagon-like peptide 1 receptor (GLP-1R) (human) (UniProt P43220).

Positions of bridges follow the written chain, without caps; N, C: chain ends. Non-standard residues stand in square brackets, D forms with d. No end group written: not given here. L5 = not defined here; L6 = not defined here

Chain of human glucagon-like peptide 2 receptor (GLP-2R) (human) (O95838 whole entry): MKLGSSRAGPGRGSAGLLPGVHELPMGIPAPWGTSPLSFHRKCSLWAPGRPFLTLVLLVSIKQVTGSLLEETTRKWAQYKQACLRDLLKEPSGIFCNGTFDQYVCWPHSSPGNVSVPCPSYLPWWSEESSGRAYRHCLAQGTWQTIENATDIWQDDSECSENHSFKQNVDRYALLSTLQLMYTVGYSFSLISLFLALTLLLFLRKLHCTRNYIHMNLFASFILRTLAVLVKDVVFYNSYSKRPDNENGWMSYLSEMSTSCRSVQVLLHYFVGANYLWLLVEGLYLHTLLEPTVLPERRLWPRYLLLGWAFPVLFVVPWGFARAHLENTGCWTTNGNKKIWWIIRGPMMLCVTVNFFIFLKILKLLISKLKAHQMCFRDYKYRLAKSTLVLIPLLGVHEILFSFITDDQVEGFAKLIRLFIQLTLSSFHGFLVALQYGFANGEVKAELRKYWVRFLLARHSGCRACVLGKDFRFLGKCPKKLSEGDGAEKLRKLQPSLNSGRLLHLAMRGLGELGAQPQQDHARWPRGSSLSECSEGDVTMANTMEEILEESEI
Chain of human glucagon-like peptide 1 receptor (GLP-1R) (human) (P43220 24-463): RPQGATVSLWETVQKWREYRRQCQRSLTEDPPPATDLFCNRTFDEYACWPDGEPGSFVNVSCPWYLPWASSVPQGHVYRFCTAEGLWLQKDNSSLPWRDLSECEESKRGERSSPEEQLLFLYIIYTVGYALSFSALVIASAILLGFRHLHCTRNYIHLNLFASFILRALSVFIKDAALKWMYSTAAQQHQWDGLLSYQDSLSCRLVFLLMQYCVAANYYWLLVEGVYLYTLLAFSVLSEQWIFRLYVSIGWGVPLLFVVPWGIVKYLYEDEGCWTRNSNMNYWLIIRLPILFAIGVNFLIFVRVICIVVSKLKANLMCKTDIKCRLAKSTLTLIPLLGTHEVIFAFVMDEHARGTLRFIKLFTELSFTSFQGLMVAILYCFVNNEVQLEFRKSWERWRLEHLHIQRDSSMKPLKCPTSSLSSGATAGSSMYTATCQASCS
Chain of human glucagon receptor (GCGR) (human) (P47871 26-477): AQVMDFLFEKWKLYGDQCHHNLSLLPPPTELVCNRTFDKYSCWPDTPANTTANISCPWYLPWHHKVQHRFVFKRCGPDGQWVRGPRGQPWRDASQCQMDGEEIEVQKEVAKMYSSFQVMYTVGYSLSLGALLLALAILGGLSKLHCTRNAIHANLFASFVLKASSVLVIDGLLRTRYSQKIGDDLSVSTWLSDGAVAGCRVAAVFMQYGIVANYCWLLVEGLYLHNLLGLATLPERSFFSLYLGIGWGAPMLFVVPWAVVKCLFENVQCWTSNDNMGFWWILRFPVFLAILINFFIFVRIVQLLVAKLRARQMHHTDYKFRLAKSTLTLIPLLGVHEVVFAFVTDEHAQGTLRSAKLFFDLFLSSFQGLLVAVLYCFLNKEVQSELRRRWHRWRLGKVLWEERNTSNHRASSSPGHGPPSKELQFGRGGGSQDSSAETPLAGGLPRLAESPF

B1: mTA 7: GLP-2 (G) and L6 (peptide)
chain: HGDGSFSDEMKTILDNLKARDFINWLIQTKITD
modifications: linker 11-18 via L6; reading uncertain; also: fatty acid attached to the staple, identity not given here
Molecule B1 came in with a GLP-2R (EC50, nM); CRE luciferase reporter in HEK293-GLP-2R-CRE cells in experiment [1] of 0.068 nM.

B2: mTA 6: GLP-1/Glucagon (D) and L5 (peptide)
chain: H[dS]QGTFTSDYSKYLDEKAAKEFIKWLLNGGPSSGAPPPS
modifications: linker 17-24 via L5; reading uncertain; also: fatty acid attached to the staple, identity not given here, printed as HsQGTFTSDYSKYLDEXAAKEFIXWLLNGGPSSGAPPPS
For B2, in experiment [2], the GCGR (EC50, nM); CRE luciferase reporter in HEK293-GCGR-CRE cells is 0.62 nM. Moreover, the GLP-1R (EC50, nM); CRE luciferase reporter in HEK293-GLP-1R-CRE cells in experiment [3] was determined as 0.03 nM.
